In patent publication US20150329638A1 (Biogen, published 2015):

T1: human DR6 (Death Receptor-6, TNFRSF21) (human, UniProt O75509 42-655)
T1 sequence: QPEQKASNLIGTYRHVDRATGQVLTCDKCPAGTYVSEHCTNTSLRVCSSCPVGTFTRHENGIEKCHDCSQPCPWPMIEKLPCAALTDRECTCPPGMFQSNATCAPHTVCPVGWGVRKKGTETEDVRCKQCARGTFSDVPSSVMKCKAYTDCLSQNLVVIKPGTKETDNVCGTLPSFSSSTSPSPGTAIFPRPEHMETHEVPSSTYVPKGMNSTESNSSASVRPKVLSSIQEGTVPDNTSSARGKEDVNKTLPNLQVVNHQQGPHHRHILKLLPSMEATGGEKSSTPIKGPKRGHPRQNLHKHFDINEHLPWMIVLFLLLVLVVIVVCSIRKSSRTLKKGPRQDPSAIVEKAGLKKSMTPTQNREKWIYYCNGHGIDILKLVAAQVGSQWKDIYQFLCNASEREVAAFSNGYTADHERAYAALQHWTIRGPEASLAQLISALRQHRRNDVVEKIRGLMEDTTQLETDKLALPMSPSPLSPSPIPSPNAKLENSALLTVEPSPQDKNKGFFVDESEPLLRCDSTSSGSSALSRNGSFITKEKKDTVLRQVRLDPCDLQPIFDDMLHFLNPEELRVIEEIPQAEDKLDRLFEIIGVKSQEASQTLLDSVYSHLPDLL

T2: rat DR6 (rat, UniProt D3ZF92 42-655)
T2 construct: Full length rat DR6 expressed on transfected HEK293 cells
T2 sequence: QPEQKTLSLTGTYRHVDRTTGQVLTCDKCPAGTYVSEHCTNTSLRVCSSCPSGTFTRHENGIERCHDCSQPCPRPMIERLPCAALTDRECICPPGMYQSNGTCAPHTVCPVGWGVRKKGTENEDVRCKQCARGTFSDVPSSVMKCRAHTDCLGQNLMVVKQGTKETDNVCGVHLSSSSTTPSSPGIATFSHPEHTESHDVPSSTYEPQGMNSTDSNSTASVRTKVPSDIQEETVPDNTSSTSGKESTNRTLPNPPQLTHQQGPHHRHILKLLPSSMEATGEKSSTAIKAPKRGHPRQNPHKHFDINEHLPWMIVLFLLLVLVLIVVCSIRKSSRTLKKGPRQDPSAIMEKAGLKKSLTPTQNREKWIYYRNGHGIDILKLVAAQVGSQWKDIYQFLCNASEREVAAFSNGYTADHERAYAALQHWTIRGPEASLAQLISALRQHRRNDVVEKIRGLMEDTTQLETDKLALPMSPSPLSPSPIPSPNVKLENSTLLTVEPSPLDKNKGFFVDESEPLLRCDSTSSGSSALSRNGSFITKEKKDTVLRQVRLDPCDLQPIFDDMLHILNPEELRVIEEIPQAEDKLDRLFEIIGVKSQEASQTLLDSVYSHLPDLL

T3: mouse DR6 (mouse, UniProt Q9EPU5 42-655)
T3 sequence: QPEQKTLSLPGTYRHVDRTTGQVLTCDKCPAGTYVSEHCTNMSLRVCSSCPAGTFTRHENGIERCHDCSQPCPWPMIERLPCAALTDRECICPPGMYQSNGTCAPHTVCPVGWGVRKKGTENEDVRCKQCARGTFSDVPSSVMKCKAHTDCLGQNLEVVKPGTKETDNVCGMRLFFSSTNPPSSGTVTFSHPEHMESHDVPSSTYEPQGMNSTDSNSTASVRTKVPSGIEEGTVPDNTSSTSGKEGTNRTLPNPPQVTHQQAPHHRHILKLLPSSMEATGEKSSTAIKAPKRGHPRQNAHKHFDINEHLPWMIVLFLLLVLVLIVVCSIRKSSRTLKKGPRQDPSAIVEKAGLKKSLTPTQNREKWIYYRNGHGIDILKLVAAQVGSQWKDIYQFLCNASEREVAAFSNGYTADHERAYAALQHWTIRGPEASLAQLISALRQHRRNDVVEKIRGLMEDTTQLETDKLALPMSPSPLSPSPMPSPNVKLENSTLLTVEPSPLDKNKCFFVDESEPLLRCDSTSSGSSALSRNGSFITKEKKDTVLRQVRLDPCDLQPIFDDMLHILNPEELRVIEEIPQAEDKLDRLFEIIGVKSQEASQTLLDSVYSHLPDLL


Experiments:
[1] = target: T1, human DR6 (Death Receptor-6, TNFRSF21); assay: FACS direct binding on transiently transfected HEK293 cells
Method: (§1) The apparent Kd of 5D10 and M53-E04 for rat and human DR6 was estimated using transiently transfected HEK293 cells in a FACS direct binding assay. Approximately 50,000 cells in 150 uL of PBS, 1% BSA, 0.1% NaN3 (FACS buffer) were analyzed. Cells were pelleted and resuspended in 150 uL of serial dilutions of the antibodies in FACS buffer. Samples were incubated for 1 hr on ice with occasional agitation and then washed 3 times. Bound antibodies were visualized with PE-labeled goat F(ab)2 anti-human or anti-mouse Fab specific antibody (Jackson Labs).
(§2) The binding affinities of 5D10 or M53-E04 to cyno monkey DR6 were similar to human DR6. A single point mutation (Y93A) was introduced to 5D10 based on the co-crystal structure of DR6-5D10 (FIG. 6).

rat DR6 [2] = target: T2, rat DR6; assay: as above
Method: as §1, §2

mouse DR6 = target: T3, mouse DR6; assay: flow cytometry on HEK293 cells transfected with full length DR6
Method: Six million HEK293 cells were transfected with 10 ug of plasmid DNA, which encoded full length human, rat, or mouse DR6. Three days after transfection, approximately 50,000 cells in 200 μL of PBS, 1% BSA, 0.1% NaN3 (FACS buffer) were analyzed. Cells were pelleted and resuspended in 150 μL of serial dilutions of anti-DR6 antibodies in FACS buffer. Samples were incubated for 1 hour on ice with occasional agitation and then washed three times. Bound DR6 antibody was visualized with PE-labeled goat F(ab)₂ anti-human Fab (for Dyax Fabs) or anti-mouse IgG specific antibody (for monoclonal antibodies) (Jackson Labs). […] Although both antibodies bind to DR6, the EO4 antibody leads to cell death, whereas 5D10 promotes cell survival. FIG. 5B.

[3] = target: T1, human DR6 (Death Receptor-6, TNFRSF21); assay: cell-based or functional assay
rat DR6 [4] = target: T2, rat DR6; assay: binding to rat DR6 (FIG. 6)

| Binder | EC50 [1] [nM] | EC50 (rat DR6 [2]) [nM] | binding result (mouse DR6) | motor neuron survival following sodium arsenite treatment (cell number) [3] [fold] | binding result (rat DR6 [4]) |
| --- | --- | --- | --- | --- | --- |
| M53-E04 (Fab, V domains shown, The format in the assay (Fab or full IgG) is therefore not certain; also called EO4 antibody; E04 mAb) VH: EVQLLESGGGLVQPGGSLRLSCAASGFTFSNYEMSWVRQAPGKGLEWVSSIYSSGGETLYADSVKGRFTISRDNSKNTLYLQMNSLRAEDTAVYYCARDGAADYWGQGTLVTVSS VL: QSELTQPPSASGTPGQWVTISCSGSTSNIGNNYVYWYQQLPGTAPKLLIYTNNQRPSGVPDRFSGSKSGTSASLAISGLRSEDEADYYCATWDDSLYAPVFGGGTKVTVL | 0.05 | 0.1 | binds |  |  |
| 1P5D10.2 (antibody, V domains shown, Murine monoclonal antibody from a hybridoma; also called DR6 antagonist monoclonal antibody 5D10; anti-DR6 antibody 5D10) VH: EVQLVESGGGLVKPGGSLKLSCAASGFTFSDYYMYWVRQTPEKRLEWVATISDGGLYTYYQDSVKGRFTISRDNAKNNLYLQMSSLKSEDTAMYYCAREDDYDGDFYTMDYWGQGTSVTVSS VL: QIVLTQSPAIMSASPGEKVTITCSASSSVSYMHWFQQKPGTSPKLWIYSTSNLASGVPARFSGSGSGTSYSLTISRMEAEDAATYYCQQRSSYPLTFGAGTKLELK | 0.1 | 60 | binds | 3 |  |
| 1P5D10.2(Y93A) (antibody, V domains shown, Single point mutant (Y93A, light chain variable domain) of 5D10; also called 5D10Y93A) VH: EVQLVESGGGLVKPGGSLKLSCAASGFTFSDYYMYWVRQTPEKRLEWVATISDGGLYTYYQDSVKGRFTISRDNAKNNLYLQMSSLKSEDTAMYYCAREDDYDGDFYTMDYWGQGTSVTVSS VL: QIVLTQSPAIMSASPGEKVTITCSASSSVSYMHWFQQKPGTSPKLWIYSTSNLASGVPARFSGSGSGTSYSLTISRMEAEDAATYYCQQRSSAPLTFGAGTKLELK |  |  |  |  | binds |
